Changes are numbered by the printed parent chain.
B1: 1′DelAl PR4 (designed binder)
chain: EVVAATPTSLLISWRHPHFPTRYYRITYGETGGNSPVQEFTVPLQPPTATISGLKPGVDYTITGYAVTVAQNDHELLTPISINYRT
notes: Del 1-8
B2: 2′Del B2 PR4 (designed binder)
chain: B1 chain with V69T, A70G, Q71W, D73G, H74N, L77F
notes: Del 1-8
B3: 2′Del C1 PR4 (designed binder)
chain: B1 chain with V69A, A70G, Q71L, N72D, D73E, T78I
notes: Del 1-8
B4: 1′DelE2 PR4 (designed binder)
chain: B1 chain with A70G
notes: Del 1-8
B5: 2′Del C5 PR4 (designed binder)
chain: B1 chain with V69P, A70G, Q71H, L77M, T78V
notes: Del 1-8
B6: 1′DelD5 PR4 (designed binder)
chain: B1 chain with A70G, D73H, L77F
notes: Del 1-8
B7: 2′Del B4 PR4 (designed binder)
chain: B1 chain with V69S, A70G, Q71H, D73G, L76V, L77M
notes: Del 1-8
B8: 2′Del C11 PR4 (designed binder)
chain: B1 chain with V69A, A70G, Q71L, D73E, T78I
notes: Del 1-8
B9: 1′DelE6 PR4 (designed binder)
chain: B1 chain with V69L, H74R
notes: Del 1-8
B10: 2′Del A11 PR4 (designed binder)
chain: B1 chain with V69E, A70D, Q71I, N72R, D73V, H74L, E75W, L77N, P79T
notes: Del 1-8
B11: 2′Del C8 PR4 (designed binder)
chain: B1 chain with V69T, Q71H, D73G
notes: Del 1-8
B12: 1′DelH12 PR4 (designed binder)
chain: B1 chain with D73E, H74R, L77F
notes: Del 1-8
B13: 2′Del B5 PR4 (designed binder)
chain: B1 chain with V69A, A70G, Q71R, N72H, L77I, T78I
notes: Del 1-8
B14: 2′Del C6 PR4 (designed binder)
chain: B1 chain with V69M, A70G, Q71F, N72M, D73A, L77M, T78V
notes: Del 1-8
B15: 1′DelE7 PR4 (designed binder)
chain: B1 chain with D73G, L77F
notes: Del 1-8
B16: 2′Del B3 PR4 (designed binder)
chain: B1 chain with V69D, Q71P, D73G, H74R, L77M, T78V
notes: Del 1-8
B17: 2′Del A2 PR4 (designed binder)
chain: B1 chain with V69G, A70G, Q71R, D73G, E75T
notes: Del 1-8
B18: 1′DelH10 PR4 (designed binder)
chain: B1 chain with V69F
notes: Del 1-8
B19: 1′Del G10 PR4 (designed binder)
chain: B1 chain with V69M, D73G, E75K, L77M
notes: Del 1-8
B20: 1′DelA2 PR4 (designed binder)
chain: B1 chain with D73G, E75Q, L77F
notes: Del 1-8
B21: 1′DelD2 PR4 (designed binder)
chain: B1 chain with Q71K
notes: Del 1-8
B22: 1′DelF3 PR4 (designed binder)
chain: B1 chain with V69M, E75K, L77F
notes: Del 1-8
B23: 1′DelH5 PR4 (designed binder)
chain: B1 chain with H74R, L77F
notes: Del 1-8
B24: 1′DelD1 PR4 (designed binder)
chain: B1 chain with A70T
notes: Del 1-8

target: T1, human vascular endothelial growth factor receptor-2 Fc chimera (KDR-Fc) (human, UniProt P35968 20-764); test: radioactive equilibrium binding, 1 nM KDR-Fc
T1 construct: range 1-764; also called human VEGFR-2; VEGF-R2-Fc; not shown: human IgG1 Fc
T1 sequence (P35968 20-764 limits assumed, change not shown, form in doubt): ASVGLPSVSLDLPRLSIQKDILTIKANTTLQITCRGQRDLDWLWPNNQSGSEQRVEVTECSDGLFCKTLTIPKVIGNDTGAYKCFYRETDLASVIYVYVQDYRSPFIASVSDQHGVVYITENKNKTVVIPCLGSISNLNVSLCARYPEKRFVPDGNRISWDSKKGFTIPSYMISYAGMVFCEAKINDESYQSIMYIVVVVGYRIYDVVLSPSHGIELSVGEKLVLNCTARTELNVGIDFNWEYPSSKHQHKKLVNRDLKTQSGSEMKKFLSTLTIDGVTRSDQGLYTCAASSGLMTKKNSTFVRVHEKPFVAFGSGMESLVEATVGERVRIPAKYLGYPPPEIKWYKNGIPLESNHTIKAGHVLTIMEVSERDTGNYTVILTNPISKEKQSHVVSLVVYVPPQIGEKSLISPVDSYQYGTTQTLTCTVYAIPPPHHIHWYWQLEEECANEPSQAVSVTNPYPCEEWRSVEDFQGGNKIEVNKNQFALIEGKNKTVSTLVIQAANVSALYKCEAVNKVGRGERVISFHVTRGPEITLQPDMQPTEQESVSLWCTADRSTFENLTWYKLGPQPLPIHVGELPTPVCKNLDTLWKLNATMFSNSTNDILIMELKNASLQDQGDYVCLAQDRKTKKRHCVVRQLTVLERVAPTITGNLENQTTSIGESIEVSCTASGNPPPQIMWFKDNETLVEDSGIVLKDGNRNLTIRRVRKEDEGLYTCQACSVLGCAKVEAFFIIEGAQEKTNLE
Procedure: To prepare ³⁵S-labeled binding proteins for analysis, mRNA was prepared as described above for RNA-protein fusion production but the linker ligation step was omitted. The mRNA was expressed using rabbit reticulocyte lysate translation kit (Ambion) in the presence of ³⁵S-labeled Met at 30° C. for 1 hour. Expressed protein was purified on M2-agarose Flag beads (Sigma) as described above. This procedure produced the encoded protein without the nucleic acid tail. In a direct binding assay, VEGF-R2-Fc fusions in concentrations ranging from 0 to 200 nM were added to a constant concentration of the purified protein (0.2 or 0.5 nM) and incubated at 30° C. for 1 hour in buffer B. The receptor-binder complexes were captured using Protein A magnetic beads for another 10 minutes at room temperature using a Kingfisher™ The beads were washed with six reaction volumes of buffer B. The protein was eluted from the beads with 100 μL of 0.1 M KOH. […] of the reaction mixture and elution were dried onto a LumaPlate-96 (Packard) and the amount of ³⁵S on the plate was measured using a TopCount NXT instrument (Packard). The amount of fibronectin-based scaffold protein bound to the target was estimated as a percent of radioactivity eluted from Protein A magnetic beads compare to radioactivity in the reaction mixture. Nonspecific binding of fibronectin-based scaffold proteins to the beads was determined by measuring binding in the absence of KDR-Fc and represented less than 1-2% of the input. Specific binding was obtained through subtraction of nonspecific binding from total binding. Data was analyzed using the GraphPad Prizm software (GraphPad Software, Inc, San Diego, Calif.), fitted using a one site, non-linear binding equation.

| Binding to 1 nM KDR, % [%] | Binder |
| --- | --- |
| 14 | B1 |
| 29 | B2 |
| 32 | B3 |
| 16 | B4 |
| 26 | B5 |
| 17 | B6 |
| 31 | B7 |
| 34 | B8 |
| 24 | B9 |
| 16 | B10 |
| 15 | B11 |
| 18 | B12 |
| 33 | B13 |
| 34 | B14 |
| 22 | B15 |
| 17 | B16 |
| 17 | B17 |
| 17 | B18 |
| 36 | B19 |
| 23 | B20 |
| 17 | B21 |
| 16 | B22 |
| 17 | B23 |
| 16 | B24 |

— patent publication US20140179896A1 (published 2014)
